Test results: the supplement of paper PMC10567573

B1: SOAT1 (parent)
chain: PSNGRIDIKQLIAKKIKLTAEAEE
B2: TRAF3IP2 (parent)
chain: KQGSMNFRFIPVLFPNAKKEHVPT

Variants of: B1
Test: protein stability index of a GFP-peptide fusion (GPS, HEK-293T) (PSI 1-6); higher = more stable
Conditions: c terminus: a fixed tail appended
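Further: lentivirally expressed fusions sorted by FACS into six bins by GFP to DsRed ratio, PSI derived from sequencing read proportions per bin multiplied by bin number.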

In order of rising protein stability index:
1. PSNGRIDIKQLIAKKIKLMAEAEE [T19M]  1.89
2. PSNGRIDIKQLIAKKIKLTAEFEE [A22F]  2.35
3. PSNGRIDIKQLIAKKIKLTAEWEE [A22W]  2.48
4. PSNGRIDIKQLIAKKIWLTAEAEE [K17W]  2.53
5. PSNGRIDIKQLIAKKIKLTAEIEE [A22I]  2.59
6. PSNGRIDIKQLIAKKIKLTAECEE [A22C]  2.63
7. PSNGRIDIKQLIAKKIKLTAEREE [A22R]  2.79
8. PSNGRIDIKQLIAKKIKLTAETEE [A22T]  2.82
9. PSNGRIDIKQLIAKKIYLTAEAEE [K17Y]  2.84
10. PSNGRIDIKQLIAKKIKWTAEAEE [L18W]  2.9
11. PSNGRIDIKQLIAKKIKLTAEYEE [A22Y]  2.91
12. PSNGRIDIKQLIAKKIKLTAEVEE [A22V]  2.94
13. PSNGRIDIKQLIAKKIRLTAEAEE [K17R]  2.99
14. PSNGRIDIKQLIAKKIKLTAEMEE [A22M]  3
15. PSNGRIDIKQLIAKKIKYTAEAEE [L18Y]  3.13
16. PSNGRIDIKQLIAKKIKLTAEKEE [A22K]  3.15
17. PSNGRIDIKQLIAKKIKLTAEPEE [A22P]  3.18
18. PSNGRIDIKQLIAKKIKLTAELEE [A22L]  3.2
19. PSNGRIDIKQLIAKKIKKTAEAEE [L18K]  3.23
20. PSNGRIDIKQLIAKKIKLTAESEE [A22S]  3.26
21. PSNGRIDIKQLIAKKIKMTAEAEE [L18M]  3.27
22. PSNGRIDIKQLIAKKIKLTAENEE [A22N]  3.32
23. PSNGRIDIKQLIAKKIKTTAEAEE [L18T]  3.38
24. PSNGRIDIKQLIAKKIKFTAEAEE [L18F]  3.38
25. PSNGRIDIKQLIAKKIVLTAEAEE [K17V]  3.38
26. PSNGRIDIKQLIAKKIKLTAEHEE [A22H]  3.42
27. PSNGRIDIKQLIAKKIKRTAEAEE [L18R]  3.45
28. PSNGRIDIKQLIAKKITLTAEAEE [K17T]  3.5
29. PSNGRIDIKQLIAKKIKVTAEAEE [L18V]  3.53
30. PSNGRIDIKQLIAKKIKSTAEAEE [L18S]  3.59
31. PSNGRIDIKQLIAKKISLTAEAEE [K17S]  3.59
32. PSNGRIDIKQLIAKKIKATAEAEE [L18A]  3.62
33. PSNGRIDIKQLIAKKIKLTAEGEE [A22G]  3.66
34. PSNGRIDIKQLIAKKIKCTAEAEE [L18C]  3.67
35. PSNGRIDIKQLIAKKIKHTAEAEE [L18H]  3.69
36. PSNGRIDIKQLIAKKIKITAEAEE [L18I]  3.72
37. PSNGRIDIKQLIAKKIKLTAEQEE [A22Q]  3.72
38. PSNGRIDIKQLIAKKIKNTAEAEE [L18N]  3.73
39. PSNGRIDIKQLIAKKIKQTAEAEE [L18Q]  3.89
40. PSNGRIDIKQLIAKKIKLTAEEEE [A22E]  3.93
41. PSNGRIDIKQLIAKKIKPTAEAEE [L18P]  4.04
42. PSNGRIDIKQLIAKKIKGTAEAEE [L18G]  4.04
43. PSNGRIDIKQLIAKKIKLTAEDEE [A22D]  4.05
44. PSNGRIDIKQLIAKKIKDTAEAEE [L18D]  4.13
45. PSNGRIDIKQLIAKKIKETAEAEE [L18E]  4.14

Variants of: B2
Test: as above
Conditions: c terminus: a fixed tail appended

In order of rising protein stability index:
1. KRGSMNFRFIPVLFPNAKKEHVPT [Q2R]  1.47
2. KMGSMNFRFIPVLFPNAKKEHVPT [Q2M]  1.48
3. LQGSMNFRFIPVLFPNAKKEHVPT [K1L]  1.51
4. KQKSMNFRFIPVLFPNAKKEHVPT [G3K]  1.6
5. IQGSMNFRFIPVLFPNAKKEHVPT [K1I]  1.63
6. KHGSMNFRFIPVLFPNAKKEHVPT [Q2H]  1.63
7. KQLSMNFRFIPVLFPNAKKEHVPT [G3L]  1.67
8. KQMSMNFRFIPVLFPNAKKEHVPT [G3M]  1.75
9. KQISMNFRFIPVLFPNAKKEHVPT [G3I]  1.77
10. KDGSMNFRFIPVLFPNAKKEHVPT [Q2D]  1.8
11. KCGSMNFRFIPVLFPNAKKEHVPT [Q2C]  1.8
12. KSGSMNFRFIPVLFPNAKKEHVPT [Q2S]  1.82
13. KTGSMNFRFIPVLFPNAKKEHVPT [Q2T]  1.84
14. KVGSMNFRFIPVLFPNAKKEHVPT [Q2V]  1.85
15. KFGSMNFRFIPVLFPNAKKEHVPT [Q2F]  1.87
16. PQGSMNFRFIPVLFPNAKKEHVPT [K1P]  1.88
17. QQGSMNFRFIPVLFPNAKKEHVPT [K1Q]  1.88
18. KQASMNFRFIPVLFPNAKKEHVPT [G3A]  1.9
19. KNGSMNFRFIPVLFPNAKKEHVPT [Q2N]  1.91
20. KKGSMNFRFIPVLFPNAKKEHVPT [Q2K]  1.91
21. KPGSMNFRFIPVLFPNAKKEHVPT [Q2P]  1.93
22. MQGSMNFRFIPVLFPNAKKEHVPT [K1M]  1.94
23. NQGSMNFRFIPVLFPNAKKEHVPT [K1N]  1.94
24. VQGSMNFRFIPVLFPNAKKEHVPT [K1V]  1.95
25. CQGSMNFRFIPVLFPNAKKEHVPT [K1C]  2.01
26. KQHSMNFRFIPVLFPNAKKEHVPT [G3H]  2.01
27. AQGSMNFRFIPVLFPNAKKEHVPT [K1A]  2.02
28. DQGSMNFRFIPVLFPNAKKEHVPT [K1D]  2.02
29. KQDSMNFRFIPVLFPNAKKEHVPT [G3D]  2.02
30. KQNSMNFRFIPVLFPNAKKEHVPT [G3N]  2.05
31. KQCSMNFRFIPVLFPNAKKEHVPT [G3C]  2.06
32. WQGSMNFRFIPVLFPNAKKEHVPT [K1W]  2.08
33. KYGSMNFRFIPVLFPNAKKEHVPT [Q2Y]  2.08
34. KQESMNFRFIPVLFPNAKKEHVPT [G3E]  2.09
35. KEGSMNFRFIPVLFPNAKKEHVPT [Q2E]  2.13
36. SQGSMNFRFIPVLFPNAKKEHVPT [K1S]  2.16
37. HQGSMNFRFIPVLFPNAKKEHVPT [K1H]  2.17
38. GQGSMNFRFIPVLFPNAKKEHVPT [K1G]  2.19
39. FQGSMNFRFIPVLFPNAKKEHVPT [K1F]  2.23
40. KLGSMNFRFIPVLFPNAKKEHVPT [Q2L]  2.23
41. KWGSMNFRFIPVLFPNAKKEHVPT [Q2W]  2.27
42. RQGSMNFRFIPVLFPNAKKEHVPT [K1R]  2.31
43. TQGSMNFRFIPVLFPNAKKEHVPT [K1T]  2.32
44. KAGSMNFRFIPVLFPNAKKEHVPT [Q2A]  2.47
45. YQGSMNFRFIPVLFPNAKKEHVPT [K1Y]  2.57
46. KGGSMNFRFIPVLFPNAKKEHVPT [Q2G]  2.66
47. EQGSMNFRFIPVLFPNAKKEHVPT [K1E]  2.7
48. KIGSMNFRFIPVLFPNAKKEHVPT [Q2I]  2.82
49. KQFSMNFRFIPVLFPNAKKEHVPT [G3F]  3.01
